Biological target: T1, interaction between TIM-3 and Galectin-9 (Homo sapiens, UniProt Q8TDQ0)
T1 construct: purchased R&D Systems
Assay: MesoScale competition assay, Gal9-SULFOTag binding to coated TIM-3 fusion protein
Settings: serial dilutions, Galectin-9 SULFOTag 100 nM, FIG. 1
Procedure: TIM-3 fusion protein (R&D Systems) was coated on a standard MesoScale 96 well plate (Meso Scale Discovery) at 2 μg/ml in PBS (Phosphate Buffered Saline) and incubated for six hours at room temperature. The plate was washed three times with PBST (PBS buffer containing 0.05% Tween-20) and blocked with PBS containing 5% Probumin (Millipore) overnight at 4° C. […] The plate was then washed three times with PBST, and Galectin-9 labeled with MSD SULFOTag (Meso Scale Discovery) as per manufacturer's instructions, diluted in Assay Diluent to 100 nM, was added to the plate for one hour at room temperature on an orbital shaker. The plate was again washed three times with PBST, and Read Buffer T (1×) was added to the plate. The plate was read on MA600 Imager, and competition was assessed as a measure of the ability of the antibody to block Gal9-SULFOTag signal to TIM-3 receptor.

B1: Galectin-9 protein: control recombinant human Galectin-9 protein, unlabeled (protein)
chain: AFSGSQAPYLSPAVPFSGTIQGGLQDGLQITVNGTVLSSSGTRFAVNFQTGFSGNDIAFHFNPRFEDGGYVVCNTRQNGSWGPEERKTHMPFQKGMPFDLCFLVQSSDFKVMVNGILFVQYFHRVPFHRVDTISVNGSVQLSYISFQPPGVWPANPAPITQTVIHTVQSAPGQMFSTPAIPPMMYPHPAYPMPFITTILGGLYPSKSILLSGTVLPSAQRFHINLCSGNHIAFHLNPRFDENAVVRNTQIDNSWGSEERSLPRKMPFVRGQSFSVWILCEAHCLKVAVDGQHLFEYYHRLRNLPTINRLEVGGDIQLTHVQT
ability to block Gal9-SULFOTag signal to TIM-3 receptor (competition): did not

From patent US20230058489A1, “COMBINATION COMPRISING A TIM-3 INHIBITOR AND A HYPOMETHYLATING AGENT FOR USE IN TREATING MYELODYSPLASTIC SYNDROME OR CHRONIC MYELOMONOCYTIC LEUKEMIA” (Novartis AG, priority 2020, published 2023)
